In patent US20180066036A1 (APOGENIX, published 2018):

B1: PROTEIN X (ligand)
chain: QIAAHVISEASSKTTSVLQWAEKGYYTMSNNLVTLENGKQLTVKRQGLYYIYAQVTFCSNREASSQAPFIASLCLKSPGRFERILLRAANTHSSAKPCGQQSIHLGGVFELQPGASVFVNVTDPSQVSHGTGFTSFGLLKLGSGSSGSSGSSGSGYIEDAPSDGKFYVRKDGAWVELPTASGPSSSSSSAWSHPQFEK
notes: Three identical polypeptides; also called trivalent control protein; homotrimeric CD40L-RBD stabilized by RB69 trimerisation scaffold
B2: PROTEIN-X2 (ligand)
chain: QIAAHVISEASSKTTSVLQWAEKGYYTMSNNLVTLENGKQLTVKRQGLYYIYAQVTFCSNREASSQAPFIASLCLKSPGRFERILLRAANTHSSAKPCGQQSIHLGGVFELQPGASVFVNVTDPSQVSHGTGFTSFGLLKLGSSSSSSAWSHPQFEK

How the values were obtained:
[1] = target: CD40 (native receptor on the surface of human cells) (human, UniProt P25942 21-277); assay: cell-based or functional assay
Sequence of CD40 (native receptor on the surface of human cells) (P25942 21-277): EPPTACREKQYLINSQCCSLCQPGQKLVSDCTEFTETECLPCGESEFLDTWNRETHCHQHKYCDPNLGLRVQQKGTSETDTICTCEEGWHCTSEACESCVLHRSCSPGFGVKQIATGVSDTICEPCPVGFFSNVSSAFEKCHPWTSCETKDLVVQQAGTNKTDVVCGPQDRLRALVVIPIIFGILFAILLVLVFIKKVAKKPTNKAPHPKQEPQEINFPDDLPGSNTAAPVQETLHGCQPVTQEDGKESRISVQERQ

[2] = target: T1, human CD40-Fc (Enzo, catalogue number ALX-522-016-C050) (human, UniProt P25942 21-193); assay: QCM (Attana A100), human CD40-Fc immobilized, analyte at 1, 5 and 10 µg/ml
T1 construct: Bought reagent; also called immobilized CD40-receptor; not shown: Fc part of the bought fusion protein, not described
T1 sequence (P25942 21-193 limits assumed): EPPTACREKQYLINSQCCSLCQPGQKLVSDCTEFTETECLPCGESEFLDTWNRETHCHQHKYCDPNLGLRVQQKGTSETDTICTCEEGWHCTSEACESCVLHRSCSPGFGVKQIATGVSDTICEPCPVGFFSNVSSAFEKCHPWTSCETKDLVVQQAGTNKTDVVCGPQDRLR
Method: The equilibrium binding constants (KD) of trivalent constructs of CD40L (e.g.: PROTEIN X) and hexavalent constructs of CD40L (e.g. PROTEIN A, PROTEIN B, and PROTEIN C) to CD40 was calculated based on kinetic binding data (kₒₙ and koff) determined with an automated biosensor system (Attana A100). The A100 allows to investigate molecular interactions in real-time based on the Quartz Crystal Microbalance (QCM) technique.
For this purpose human CD40-Fc, purchased from Enzo (catalogue number: ALX-522-016-C050), was immobilized on the surface of a carboxyl-activated QCM-chip. Trimeric and hexameric CD40L-constructs were used as soluble analyte at concentrations of 1, 5, and 10 μg/ml. Binding (kₒₙ) and dissociation (koff) was analyzed.

Row | Binder | CD86 (MFI), monocytes 3 d, 10 ng/mL [1] [MFI] | CD86 (MFI), monocytes 3 d, 100 ng/mL [1] [MFI] | CD86 (MFI), monocytes 3 d, 1000 ng/mL [1] [MFI] | HLA-DR,DP (MFI), monocytes 3 d, 10 ng/mL [1] [MFI] | HLA-DR,DP (MFI), monocytes 3 d, 100 ng/mL [1] [MFI] | HLA-DR,DP (MFI), monocytes 3 d, 1000 ng/mL [1] [MFI] | Percentage of macrophages that are CD86+, 3 d, 10 ng/mL [1] [%] | Percentage of macrophages that are CD86+, 3 d, 100 ng/mL [1] [%] | Percentage of macrophages that are CD86+, 3 d, 1000 ng/mL [1] [%] | Percentage of macrophages that are CD206+ and CD163+ (M2-like), 3 d, 10 ng/mL [1] [%] | Percentage of macrophages that are CD206+ and CD163+ (M2-like), 3 d, 100 ng/mL [1] [%] | Percentage of macrophages that are CD206+ and CD163+ (M2-like), 3 d, 1000 ng/mL [1] [%] | Percentage of macrophages that are HLA-DR,DP+, 3 d, 10 ng/mL [1] [%] | Percentage of macrophages that are HLA-DR,DP+, 3 d, 100 ng/mL [1] [%] | Percentage of macrophages that are HLA-DR,DP+, 3 d, 1000 ng/mL [1] [%] | Kd [2] [nM]
1 | B1 | 11 | 11 | 12 | 26 | 26 | 31 | 7 | 8 | 16 | 17 | 21 | 10 | 5 | 6 | 12 | 9.05
2 | B2 | 11 | 12 | 11 | 26 | 29 | 22 | 7 | 7 | 8 | 21 | 23 | 21 | 5 | 7 | 2 | –
